# Laboratory results from US20160002357A1 (Pfizer, published 2016).
# Target: T1, P-cadherin-ECD1-3-Fc protein (human P-cadherin-Fc) (human, UniProt P22223 108-440)
# T1 construct: Construct was expressed with signal peptide and pro-peptide (PACE co-transfected to process the propeptide); not shown: hinge and CH2 and CH3 domains of human IgG1
# Test: phage scFv ELISA, coated P-cadherin-ECD1-3-Fc
# Procedure: P-cadherin-ECD1-3-Fc protein or negative control protein was coated overnight at 4° C. on 96-well Nunc Maxisorp® plates (Thermo Fisher Scientific, Madison, Conn.) at a concentration of 2 μg/mL in PBS+Ca²⁺ and Mg²⁺. Plates were washed three times using PBS+Ca²⁺ and Mg²⁺ and blocked for 1 hour at room temperature in 3% milk/PBS+Ca²⁺ and Mg²⁺. Phage samples prepared as described above were added to the blocked plates for 1 hour at room temperature. Plates were washed three times with PBS+Ca²⁺ and Mg²⁺ prior to the addition of secondary antibody (anti M13-HRP 1:2000, GE Healthcare, Piscataway, N.J.). Plates were incubated for a further 1 hour at room temperature and washed six times with PBS+Ca²⁺ and Mg²⁺. Signal was developed using TMB (SurModics, Eden Prairie, Minn.), the reaction stopped with H₂SO₄ and the absorbance read at 450 nm on an EnVision® plate reader (Perkin Elmer, Waltham, Mass.).
# T1 sequence (P22223 108-440): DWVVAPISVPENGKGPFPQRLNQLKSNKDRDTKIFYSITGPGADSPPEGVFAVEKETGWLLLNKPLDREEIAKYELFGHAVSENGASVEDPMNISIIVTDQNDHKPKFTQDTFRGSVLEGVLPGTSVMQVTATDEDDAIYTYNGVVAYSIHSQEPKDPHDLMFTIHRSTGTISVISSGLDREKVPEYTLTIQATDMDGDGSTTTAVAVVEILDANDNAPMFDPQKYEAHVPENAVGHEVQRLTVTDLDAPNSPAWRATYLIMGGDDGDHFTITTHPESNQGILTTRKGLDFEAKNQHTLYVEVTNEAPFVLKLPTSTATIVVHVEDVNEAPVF
Binder,% of binding of Clone #153 to human P-cadherin-Fc [%],Human P-cadherin-Fc binding (OD450),Z Score
"anti-P-cadherin scFv 153 alanine-mutant H1.1-Ala (scFv, V domains shown, scFv on phage) VH: EVQLVQSGAEVKKPGASVKVSCKASAYTFTSYGISWVRQAPGQGLEWMGWISAYNGNTNYAQKLQGRVTMTTDTSTSTAYMELRSLRSDDTAVYYCATIDTANAFGIWGQGTMVTVSS VL: QSVLTQPPSVSAAPGQKVTISCSGSSSNIGNNYVSWYQQLPGTAPKLLIYDNNKRPSGIPDRFSGSKSGTSATLGITGLQTGDEADYYCGTWDSSLSGVVFGGGTKLTVL",135,1.79,0.7
"anti-P-cadherin scFv 153 alanine-mutant H1.5-Ala (scFv, V domains shown, scFv on phage) VH: EVQLVQSGAEVKKPGASVKVSCKASGYTFASYGISWVRQAPGQGLEWMGWISAYNGNTNYAQKLQGRVTMTTDTSTSTAYMELRSLRSDDTAVYYCATIDTANAFGIWGQGTMVTVSS VL: QSVLTQPPSVSAAPGQKVTISCSGSSSNIGNNYVSWYQQLPGTAPKLLIYDNNKRPSGIPDRFSGSKSGTSATLGITGLQTGDEADYYCGTWDSSLSGVVFGGGTKLTVL",155,2.05,1.2
"anti-P-cadherin scFv 153 alanine-mutant H1.2-Ala (scFv, V domains shown, scFv on phage) VH: EVQLVQSGAEVKKPGASVKVSCKASGATFTSYGISWVRQAPGQGLEWMGWISAYNGNTNYAQKLQGRVTMTTDTSTSTAYMELRSLRSDDTAVYYCATIDTANAFGIWGQGTMVTVSS VL: QSVLTQPPSVSAAPGQKVTISCSGSSSNIGNNYVSWYQQLPGTAPKLLIYDNNKRPSGIPDRFSGSKSGTSATLGITGLQTGDEADYYCGTWDSSLSGVVFGGGTKLTVL",179,2.36,1.7
"anti-P-cadherin scFv 153 alanine-mutant H1.6-Ala (scFv, V domains shown, scFv on phage) VH: EVQLVQSGAEVKKPGASVKVSCKASGYTFTAYGISWVRQAPGQGLEWMGWISAYNGNTNYAQKLQGRVTMTTDTSTSTAYMELRSLRSDDTAVYYCATIDTANAFGIWGQGTMVTVSS VL: QSVLTQPPSVSAAPGQKVTISCSGSSSNIGNNYVSWYQQLPGTAPKLLIYDNNKRPSGIPDRFSGSKSGTSATLGITGLQTGDEADYYCGTWDSSLSGVVFGGGTKLTVL",149,1.97,1
"anti-P-cadherin scFv 153 alanine-mutant H1.4-Ala (scFv, V domains shown, scFv on phage) VH: EVQLVQSGAEVKKPGASVKVSCKASGYTATSYGISWVRQAPGQGLEWMGWISAYNGNTNYAQKLQGRVTMTTDTSTSTAYMELRSLRSDDTAVYYCATIDTANAFGIWGQGTMVTVSS VL: QSVLTQPPSVSAAPGQKVTISCSGSSSNIGNNYVSWYQQLPGTAPKLLIYDNNKRPSGIPDRFSGSKSGTSATLGITGLQTGDEADYYCGTWDSSLSGVVFGGGTKLTVL",177,2.33,1.6
"anti-P-cadherin scFv 153 alanine-mutant H1.3-Ala (scFv, V domains shown, scFv on phage) VH: EVQLVQSGAEVKKPGASVKVSCKASGYAFTSYGISWVRQAPGQGLEWMGWISAYNGNTNYAQKLQGRVTMTTDTSTSTAYMELRSLRSDDTAVYYCATIDTANAFGIWGQGTMVTVSS VL: QSVLTQPPSVSAAPGQKVTISCSGSSSNIGNNYVSWYQQLPGTAPKLLIYDNNKRPSGIPDRFSGSKSGTSATLGITGLQTGDEADYYCGTWDSSLSGVVFGGGTKLTVL",174,2.3,1.6
"anti-P-cadherin scFv 153 alanine-mutant H1.7-Ala (scFv, V domains shown, scFv on phage) VH: EVQLVQSGAEVKKPGASVKVSCKASGYTFTSAGISWVRQAPGQGLEWMGWISAYNGNTNYAQKLQGRVTMTTDTSTSTAYMELRSLRSDDTAVYYCATIDTANAFGIWGQGTMVTVSS VL: QSVLTQPPSVSAAPGQKVTISCSGSSSNIGNNYVSWYQQLPGTAPKLLIYDNNKRPSGIPDRFSGSKSGTSATLGITGLQTGDEADYYCGTWDSSLSGVVFGGGTKLTVL",129,1.71,0.6
